Results reported in IntAct's records for PubMed 31515488.

B1: Phosphatidylserine lipase ABHD16A (Homo sapiens), O95870 (parent)
chain: MAKLLSCVLGPRLYKIYRERDSERAPASVPETPTAVTAPHSSSWDTYYQPRALEKHADSILALASVFWSISYYSSPFAFFYLYRKGYLSLSKVVPFSHYAGTLLLLLAGVACLRGIGRWTNPQYRQFITILEATHRNQSSENKRQLANYNFDFRSWPVDFHWEEPSSRKESRGGPSRRGVALLRPEPLHRGTADTLLNRVKKLPCQITSYLVAHTLGRRMLYPGSVYLLQKALMPVLLQGQARLVEECNGRRAKLLACDGNEIDTMFVDRRGTAEPQGQKLVICCEGNAGFYEVGCVSTPLEAGYSVLGWNHPGFAGSTGVPFPQNEANAMDVVVQFAIHRLGFQPQDIIIYAWSIGGFTATWAAMSYPDVSAMILDASFDDLVPLALKVMPDSWRGLVTRTVRQHLNLNNAEQLCRYQGPVLLIRRTKDEIITTTVPEDIMSNRGNDLLLKLLQHRYPRVMAEEGLRVVRQWLEASSQLEEASIYSRWEVEEDWCLSVLRSYQAEHGPDFPWSVGEDMSADGRRQLALFLARKHLHNFEATHCTPLPAQNFQMPWHL
B2: PIH1 domain-containing protein 2 (Homo sapiens), Q8WWB5 (parent)
chain: METSSKGLLTQVTQFWNLLDDLAQSDPEGYEKFIQQQLKEGKQLCAAPEPQLCLQTRILKPKEKILFINLCQWTRIPAPQSTTHPVPLTVGKPEDTTEISDAYTVIDVAYNPDVLHAAEKDQVKKNQLIQMAMKCIEEKFQFTLSHSYHITKFRIKGSIQRMKQNLMGIQTDSIDLREKMRRELTLGQIRSSTMSNPDHFPQLLLPKDQVSGKAVCLIEEISSTEIQVEMKMPAYELKIVHDHSEKPLKIELKVELPGINSVSLCDLSVSEDDLLIEVSEKYRLHLNLPKLIDTEMTTAKFIKEKSTLIITMPLV
B3: Centrin-1 (Homo sapiens), Q12798 (parent)
chain: MASGFKKPSAASTGQKRKVAPKPELTEDQKQEVREAFDLFDVDGSGTIDAKELKVAMRALGFEPRKEEMKKMISEVDREGTGKISFNDFLAVMTQKMSEKDTKEEILKAFRLFDDDETGKISFKNLKRVANELGENLTDEELQEMIDEADRDGDGEVNEEEFLRIMKKTSLY
partner: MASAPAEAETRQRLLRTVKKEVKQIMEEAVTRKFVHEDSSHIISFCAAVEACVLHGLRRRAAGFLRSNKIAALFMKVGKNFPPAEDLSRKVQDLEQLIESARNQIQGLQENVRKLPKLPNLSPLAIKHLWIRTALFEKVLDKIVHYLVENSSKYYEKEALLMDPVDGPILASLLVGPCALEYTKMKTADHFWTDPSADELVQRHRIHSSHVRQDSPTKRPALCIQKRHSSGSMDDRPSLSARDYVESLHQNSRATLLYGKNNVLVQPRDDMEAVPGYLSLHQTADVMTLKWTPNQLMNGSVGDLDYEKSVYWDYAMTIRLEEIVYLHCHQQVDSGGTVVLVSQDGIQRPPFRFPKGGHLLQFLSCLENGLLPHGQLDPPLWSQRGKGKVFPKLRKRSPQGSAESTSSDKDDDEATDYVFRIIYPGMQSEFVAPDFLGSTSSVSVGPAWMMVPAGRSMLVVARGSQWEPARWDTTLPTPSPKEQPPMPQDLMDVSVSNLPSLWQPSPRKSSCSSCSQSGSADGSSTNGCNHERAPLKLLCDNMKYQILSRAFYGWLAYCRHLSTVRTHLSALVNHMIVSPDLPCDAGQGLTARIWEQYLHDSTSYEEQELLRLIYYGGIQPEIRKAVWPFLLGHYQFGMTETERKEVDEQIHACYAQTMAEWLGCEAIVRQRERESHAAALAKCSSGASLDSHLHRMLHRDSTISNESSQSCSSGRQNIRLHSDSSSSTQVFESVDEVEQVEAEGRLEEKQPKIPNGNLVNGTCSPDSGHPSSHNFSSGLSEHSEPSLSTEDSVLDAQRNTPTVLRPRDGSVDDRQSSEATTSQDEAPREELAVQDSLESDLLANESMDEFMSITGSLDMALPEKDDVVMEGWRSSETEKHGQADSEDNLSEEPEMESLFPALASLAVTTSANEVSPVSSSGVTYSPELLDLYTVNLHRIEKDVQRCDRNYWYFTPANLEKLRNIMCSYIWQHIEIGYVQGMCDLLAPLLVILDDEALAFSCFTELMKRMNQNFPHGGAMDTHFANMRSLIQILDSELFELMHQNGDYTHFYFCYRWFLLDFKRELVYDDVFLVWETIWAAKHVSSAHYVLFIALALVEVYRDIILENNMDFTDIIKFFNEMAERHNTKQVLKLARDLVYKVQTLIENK
B4: SH2 domain-containing protein 4A (Homo sapiens), Q9H788 (parent)
chain: MLKQILSEMYIDPDLLAELSEEQKQILFFKMREEQIRRWKEREAAMERKESLPVKPRPKKENGKSVHWKLGADKEVWVWVMGEHHLDKPYDVLCNEIIAERARLKAEQEAEEPRKTHSEEFTNSLKTKSQYHDLQAPDNQQTKDIWKKVAEKEELEQGSRPAPTLEEEKIRSLSSSSRNIQQMLADSINRMKAYAFHQKKESMKKKQDEEINQIEEERTKQICKSWKEDSEWQASLRKSKAADEKRRSLAKQAREDYKRLSLGAQKGRGGERLQSPLRVPQKPERPPLPPKPQFLNSGAYPQKPLRNQGVVRTLSSSAQEDIIRWFKEEQLPLRAGYQKTSDTIAPWFHGILTLKKANELLLSTGMPGSFLIRVSERIKGYALSYLSEDGCKHFLIDASADAYSFLGVDQLQHATLADLVEYHKEEPITSLGKELLLYPCGQQDQLPDYLELFE
partner: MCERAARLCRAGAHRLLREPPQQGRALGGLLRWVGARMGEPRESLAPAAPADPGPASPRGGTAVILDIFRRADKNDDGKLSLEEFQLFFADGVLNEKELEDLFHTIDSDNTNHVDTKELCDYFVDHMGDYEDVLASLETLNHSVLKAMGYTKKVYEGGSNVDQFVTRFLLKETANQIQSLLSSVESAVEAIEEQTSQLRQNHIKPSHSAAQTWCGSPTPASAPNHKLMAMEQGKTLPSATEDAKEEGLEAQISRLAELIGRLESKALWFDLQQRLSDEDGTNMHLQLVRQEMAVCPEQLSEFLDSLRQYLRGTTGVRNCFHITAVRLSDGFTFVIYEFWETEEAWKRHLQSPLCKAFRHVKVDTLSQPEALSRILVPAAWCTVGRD

Variants of: B1
Conditions: with dtx2_human DTX2, Q86UW9
Chain of dtx2_human DTX2, Q86UW9 (Q86UW9 whole entry): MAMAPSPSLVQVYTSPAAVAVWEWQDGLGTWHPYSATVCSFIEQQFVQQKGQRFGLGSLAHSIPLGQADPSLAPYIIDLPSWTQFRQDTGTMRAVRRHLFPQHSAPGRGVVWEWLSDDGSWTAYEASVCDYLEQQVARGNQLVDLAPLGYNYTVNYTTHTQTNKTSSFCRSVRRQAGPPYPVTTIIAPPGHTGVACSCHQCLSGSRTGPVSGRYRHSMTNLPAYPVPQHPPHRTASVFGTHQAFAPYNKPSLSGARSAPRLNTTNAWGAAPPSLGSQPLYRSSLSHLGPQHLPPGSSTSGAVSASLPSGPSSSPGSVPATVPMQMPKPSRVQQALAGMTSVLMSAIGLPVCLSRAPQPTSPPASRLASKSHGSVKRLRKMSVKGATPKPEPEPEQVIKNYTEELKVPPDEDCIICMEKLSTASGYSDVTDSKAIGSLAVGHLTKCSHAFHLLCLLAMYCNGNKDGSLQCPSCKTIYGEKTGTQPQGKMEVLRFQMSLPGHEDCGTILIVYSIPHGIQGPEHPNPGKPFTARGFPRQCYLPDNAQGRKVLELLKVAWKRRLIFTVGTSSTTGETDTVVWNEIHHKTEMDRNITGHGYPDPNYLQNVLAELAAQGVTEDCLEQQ

Variant | effect of a mutation on the interaction
R184L | with no effect

Variants of: B2
Conditions: with cenpr_human ITGB3BP

Variant | effect of a mutation on the interaction
A102D | with no effect
A117V | with no effect

Variants of: B2
Conditions: with if2b3_human IGF2BP3, O00425
Chain of if2b3_human IGF2BP3, O00425 (O00425 whole entry): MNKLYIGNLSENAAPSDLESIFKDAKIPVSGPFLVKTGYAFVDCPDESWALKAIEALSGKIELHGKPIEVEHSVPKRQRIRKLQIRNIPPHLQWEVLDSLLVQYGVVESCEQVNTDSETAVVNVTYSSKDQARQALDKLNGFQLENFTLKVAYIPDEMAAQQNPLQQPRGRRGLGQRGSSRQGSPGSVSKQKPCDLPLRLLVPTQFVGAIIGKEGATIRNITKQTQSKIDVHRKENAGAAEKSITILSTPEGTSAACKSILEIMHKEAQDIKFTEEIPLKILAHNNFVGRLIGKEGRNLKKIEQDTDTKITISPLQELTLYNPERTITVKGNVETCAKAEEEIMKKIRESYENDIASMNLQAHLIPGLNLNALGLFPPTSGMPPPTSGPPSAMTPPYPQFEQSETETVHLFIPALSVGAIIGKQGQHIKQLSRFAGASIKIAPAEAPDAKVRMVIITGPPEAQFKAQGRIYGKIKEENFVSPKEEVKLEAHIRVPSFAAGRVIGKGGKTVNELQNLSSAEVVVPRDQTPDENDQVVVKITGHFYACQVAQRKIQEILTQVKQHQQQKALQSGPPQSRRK

Variant | effect of a mutation on the interaction
A102D | with no effect
A117V | with no effect

Variants of: B2
Conditions: with if4a2_human EIF4A2, Q14240
Chain of if4a2_human EIF4A2, Q14240 (Q14240 whole entry): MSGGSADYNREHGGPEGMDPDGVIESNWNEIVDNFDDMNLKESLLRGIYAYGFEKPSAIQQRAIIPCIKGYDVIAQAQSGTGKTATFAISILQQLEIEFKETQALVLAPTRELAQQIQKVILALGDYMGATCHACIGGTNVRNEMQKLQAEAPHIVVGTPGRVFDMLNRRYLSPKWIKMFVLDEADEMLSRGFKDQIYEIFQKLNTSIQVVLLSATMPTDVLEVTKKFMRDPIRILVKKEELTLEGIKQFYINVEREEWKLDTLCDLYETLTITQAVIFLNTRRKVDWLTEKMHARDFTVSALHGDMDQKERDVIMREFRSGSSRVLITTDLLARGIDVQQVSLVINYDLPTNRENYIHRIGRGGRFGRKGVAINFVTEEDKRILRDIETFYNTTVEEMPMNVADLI

Variant | effect of a mutation on the interaction
A102D | with no effect
A117V | with no effect

Variants of: B2
Conditions: with gfap_human GFAP

Variant | effect of a mutation on the interaction
A102D | with no effect
A117V | disrupting interaction strength

Variants of: B3
Conditions: with sgsm1_human SGSM1, Q2NKQ1

Variant | effect of a mutation on the interaction
M72T | with no effect

Variants of: B4
Conditions: with neca2_human NECAB2, Q7Z6G3

Variant | effect of a mutation on the interaction
E216G | with no effect
G263A | with no effect
